# Experimental data as given in patent US9364412B2, “Electrostatically controlled hydrogels” (University of Utah Research Foundation, priority 2005, dated 2016).
# Where no end group is shown, it is not given here.
# T1: SEQ ID NO 10, Acetyl-WEAEAEAEAEAEAEA-amide (negatively charged module)
# T1 construct: Synthetic designed 15-mer
# T1 peptide: Ac-WEAEAEAEAEAEAEA-NH2
# T2: SEQ ID NO 9, Acetyl-EWEAEAEAEA-amide (negatively charged module)
# T2 construct: also called EAW10
# T2 peptide: Ac-EWEAEAEAEA-NH2
# T3: SEQ ID NO 1, Acetyl-EWEVEVEVEV-amide (negatively charged module)
# T3 construct: Synthetic designed decapeptide; also called Acetyl-EW(EV)4-amide; negatively-charged peptide module
# T3 peptide: Ac-EWEVEVEVEV-NH2
# T4: SEQ ID NO 5
# T4 construct: All peptides were made on Rink Amide resin; also called member of the serine pair
# T4 peptide: EWESESESES-NH2
# B1: SEQ ID NO 4 (peptide)
# peptide: WKSKSKSKSK-NH2
# notes: All peptides were made on Rink Amide resin; also called member of the serine pair
# B2: SEQ ID NO 3, Acetyl-WKVKVKVKVK-amide (positively charged module) (peptide)
# peptide: Ac-WKVKVKVKVK-NH2
# notes: Synthetic designed decapeptide; also called Acetyl-WK(VK)4-amide; positively-charged peptide module
# How the values were obtained:
# [1] = Solubility of peptide in buffer (observation); type: physicochemical
# [2] = Salt-induced gelation (NaCl added to peptide solution); type: physicochemical; settings: for final NaCl concentration for salt-induced gelation: peptides dialyzed in 30 mM buffer, pH 6.0
# Procedure: For pH-induced gelation, dialyzed peptide solutions in vials were exposed to vapors of acetic acid (acid-induced gelation) or ammonium hydroxide (base-induced gelation). […] For salt-induced gelation, saturated sodium chloride solution was added into the dialyzed stock peptide solution so that the final peptide concentration in the hydrogel was 1 wt %. For mixing-induced gelation, dialyzed peptide solutions were mixed at 1:1 weight ratio such that the final total peptide concentration was 1 wt %.
# The salt concentration necessary to induce gelation was quite high as indicated by FIG. 2. All peptides were dialyzed in 30 mM buffer and needed a much higher concentration to trigger hydrogelation.
# [3] = target: T1, SEQ ID NO 10, …; test: small-angle X-ray scattering of the mixed peptide pair
# Procedure: (§1) A small-angle x-ray scattering instrument was used for measurements at 25° C. This instrument has a slit geometry and all analyses were corrected for this. The angular dependence of the scattering of x-rays from particles in a solvent has the form:
# (§2) Transmission electron microscopic (TEM) images of all hydrogels show the formation of fibrous network (FIG. 20). However, the drying step involved in the sample preparation for TEM might cause peptide fibers to aggregate further, giving rise to very heterogeneous samples that were difficult to characterize accurately in terms of fiber thickness, estimated very approximately as ~30 nm (diameter). Therefore, small angle X-ray scattering (SAXS) was used to probe the hydrated fibrous network with minimal perturbations to the samples. The measured scattering intensity (I(Q)) increased over time for each of the biomaterials, indicative of the formation of aggregates and consistent with a growing fibril networks (FIG. 18). […] The trend of the gelation kinetics is evident in FIG. 18, and also in the summary of the structural parameters that can be determined using P(r) analysis (Table 4). The kinetics of the formation of these structures is distinctive among the peptide pairs, with the SEQ ID NO 10:SEQ ID NO 11 pair reaching equilibrium most rapidly (between 15 min and 1 h) and the SEQ ID NO 9:SEQ ID NO 8 pair taking more than 11 hours before its small-angle scattering pattern becomes evident. The overall gelation kinetics monitored by SAXS follows a clear order of SEQ ID NO 10:SEQ ID NO 11>SEQ ID NO 9:SEQ ID NO 11>SEQ ID NO 10:SEQ ID NO 8>SEQ ID NO 9:SEQ ID NO 8. The order of gelation kinetics can be directly correlated to the total electrostatic and hydrophobic interactions among the oligopeptide pairs, which is highest for the SEQ ID NO 10:SEQ ID NO 11 pair and least for the SEQ ID NO 9:SEQ ID NO 8 pair. Among the two unequal chain length pairs, kinetics of SEQ ID NO 9:SEQ ID NO 11 (13 charged and 12 apolar amino acids) was faster than SEQ ID NO 10:SEQ ID NO 8 (12 charged and 13 apolar amino acids).
# [4] = target: T2, SEQ ID NO 9, Acetyl-EWEAEAEAEA-amide …; test: as above
# Procedure: as §1, §2
# [5] = target: T3, SEQ ID NO 1, Acetyl-EWEVEVEVEV-amide …; test: mixing-induced co-assembly into hydrogel, dynamic rheometry
# SEQ ID NO 5 = target: T4, SEQ ID NO 5; test: as above
molecule,measurement,setting,value
"Ac-WKVKVKVKVK-NH2 [SEQ ID NO 3, Acetyl-WKVKVKVKVK-amide]",solubility at pH 7,[1],did not appear to be high enough
"Acetyl-EWEVEVEVEV-amide (Ac-EWEVEVEVEV-NH2) [SEQ ID NO 1, negatively charged peptide module]",state of sample at 1.5 M NaCl,[2]; 1.5 M salt concentration,still a viscous solution
same,final NaCl concentration for salt-induced gelation,[2],3 M
"Acetyl-KWKVKVKVKVKVKVK-amide (Ac-KWKVKVKVKVKVKVK-NH2) [SEQ ID NO 2, positively charged peptide module]",final NaCl concentration for salt-induced gelation,[2],1.5 M
"Ac-WKAKAKAKAK-NH2 (also called KAW10) [SEQ ID NO 8, Acetyl-WKAKAKAKAK-amide (positively charged module)]",binding result,[3],binds
same,binding result,[4],binds
"Ac-KWKAKAKAKAKAKAK-NH2 (Synthetic designed 15-mer) [SEQ ID NO 11, Acetyl-KWKAKAKAKAKAKAK-amide (positively charged module)]",binding result,[3],binds
same,binding result,[4],binds
"Ac-KWKVKVKVKVKVKVK-NH2 (Synthetic designed 15-mer) [SEQ ID NO 2, Acetyl-KWKVKVKVKVKVKVK-amide (positively charged module)]",binding result,[5],binds
B1,binding result,SEQ ID NO 5,binds
B2,binding result,[5],binds
